Experimental findings from paper PMC6409784, “Chlorambucil Conjugated Ugi Dendrimers with PAMAM-NH2 Core and Evaluation of Their Anticancer Activity” (Pharmaceutics, 2019) are described below.

Like-named read-outs stand apart in the source and are kept apart here.

The nature of data set [1]: Solubility of dendrimers. The conditions noted are these: at 20 mg/mL.
Data set [2] concerns NIH3T3 fibroblasts. The conditions noted are these: read-out: IC50 NIH3T3, MTT; NIH3T3 mouse fibroblasts, 72 h, MTT assay.
Data set [3] has as its system NIH3T3 fibroblasts. In words: CV viability assay on non-cancerous fibroblasts. It counts as cell-based, mouse. The conditions noted are these: at the IC50 determined for PC-3 (7.3 µM), CV and MTT, 72 h.
The subject of data set [4] is PC-3 cells. The conditions noted are these: read-out: IC50, MTT assay, PC-3, 72 h. (In general: Formazan colour is commonly taken as a measure of viable cells.)
Data set [5] deals with PC-3 cells. The conditions noted are these: read-out: IC50, CV assay, PC-3, 72 h.
For data set [6], the system named is PC-3 cells. In words: cells. The conditions noted are these: Homo sapiens, PC-3, 72 h, read-out: IC50, CV assay, PC-3.
Data set [7] concerns PC-3 prostate cancer cell line. In words: Viability by CV and MTT assays (fast screening / dose response). Format: cell-based, human. The conditions noted are these: 20 µM free chlorambucil, 72 h.
Data set [8] deals with PC-3 cells. In words: cells. The conditions noted are these: Homo sapiens, PC-3, 72 h, read-out: IC50, MTT assay, PC-3.

For the compound `CC(C)C(C(=O)NCCOCCOCCNC(=O)OC(C)(C)C)N(CCNC(=O)CCN(CCC(=O)NCCN(C(=O)CCCc1ccc(N(CCCl)CCCl)cc1)C(C(=O)NCCOCCOCCNC(=O)OC(C)(C)C)C(C)C)CCN(CCC(=O)NCCN(C(=O)CCCc1ccc(N(CCCl)CCCl)cc1)C(C(=O)NCCOCCOCCNC(=O)OC(C)(C)C)C(C)C)CCC(=O)NCCN(C(=O)CCCc1ccc(N(CCCl)CCCl)cc1)C(C(=O)NCCOCCOCCNC(=O)OC(C)(C)C)C(C)C)C(=O)CCCc1ccc(N(CCCl)CCCl)cc1` (centres unmarked) [Dendrimer 1a], the Solubility entry in data set [1] was “Low”.

As usually defined, the IC50 is the point on the concentration scale where inhibition reaches its midpoint. Turning to `CC(C)C(C(=O)NCCOCCOCCN)N(CCNC(=O)CCN(CCC(=O)NCCN(C(=O)CCCc1ccc(N(CCCl)CCCl)cc1)C(C(=O)NCCOCCOCCN)C(C)C)CCN(CCC(=O)NCCN(C(=O)CCCc1ccc(N(CCCl)CCCl)cc1)C(C(=O)NCCOCCOCCN)C(C)C)CCC(=O)NCCN(C(=O)CCCc1ccc(N(CCCl)CCCl)cc1)C(C(=O)NCCOCCOCCN)C(C)C)C(=O)CCCc1ccc(N(CCCl)CCCl)cc1` (centres unmarked) [Dendrimer 1b], the results for the IC50 in data set [2], in data set [4] and in data set [5] were 74.4 ± 2.31 µM, 7.29 ± 1.18 µM and 3.65 ± 0.56 µM, respectively. For the same compound, the “effect on NIH3T3 cell growth” value in data set [3] is “did not affect NIH3T3 cell growth at all”. Besides, in data set [1], the Solubility result is “High”.

As for `COC(=O)CCCNC(=O)C(C(C)C)N(CCNC(=O)CCN(CCC(=O)NCCN(C(=O)CCCc1ccc(N(CCCl)CCCl)cc1)C(C(=O)NCCCC(=O)OC)C(C)C)CCN(CCC(=O)NCCN(C(=O)CCCc1ccc(N(CCCl)CCCl)cc1)C(C(=O)NCCCC(=O)OC)C(C)C)CCC(=O)NCCN(C(=O)CCCc1ccc(N(CCCl)CCCl)cc1)C(C(=O)NCCCC(=O)OC)C(C)C)C(=O)CCCc1ccc(N(CCCl)CCCl)cc1` (centres unmarked) [Dendrimer 2a], in data set [1], the Solubility result is reported as “Low”.

For the compound `COC(=O)CCCNC(=O)C(C(C)C)N(CCNC(=O)CCN(CCC(=O)NCCN(C(=O)CCCc1ccc(N(CCCl)CCCl)cc1)C(C(=O)NCCCC(=O)OC)C(C)C)CCN(CCC(=O)NCCN(C(=O)CCCc1ccc(N(CCCl)CCCl)cc1)C(C(=O)NCCCC(=O)OC)C(C)C)CCC(=O)NCCN(C(=O)CCCc1ccc(N(CCCl)CCCl)cc1)C(C(=O)NCCCC(=O)OC)C(C)C)C(=O)CCCC[C@@H]1SC[C@@H]2NC(=O)N[C@@H]21` (some centres unmarked) [Dendrimer 3a], the Solubility result in data set [1] is listed as “Low”.

For `CC(C)C(C(=O)NCCCC(=O)O)N(CCNC(=O)CCN(CCC(=O)NCCN(C(=O)CCCc1ccc(N(CCCl)CCCl)cc1)C(C(=O)NCCCC(=O)O)C(C)C)CCN(CCC(=O)NCCN(C(=O)CCCc1ccc(N(CCCl)CCCl)cc1)C(C(=O)NCCCC(=O)O)C(C)C)CCC(=O)NCCN(C(=O)CCCc1ccc(N(CCCl)CCCl)cc1)C(C(=O)NCCCC(=O)O)C(C)C)C(=O)CCCC[C@@H]1SC[C@@H]2NC(=O)N[C@@H]21` (some centres unmarked) [Dendrimer 3b], the Solubility result in data set [1] is “High”.

Turning to `COC(=O)CCCNC(=O)C(C(C)C)N(CCNC(=O)CCN(CCC(=O)NCCN(C(=O)CCCC[C@@H]1SC[C@@H]2NC(=O)N[C@@H]21)C(C(=O)NCCCC(=O)OC)C(C)C)CCN(CCC(=O)NCCN(C(=O)CCCC[C@@H]1SC[C@@H]2NC(=O)N[C@@H]21)C(C(=O)NCCCC(=O)OC)C(C)C)CCC(=O)NCCN(C(=O)CCCc1ccc(N(CCCl)CCCl)cc1)C(C(=O)NCCCC(=O)OC)C(C)C)C(=O)CCCC[C@@H]1SC[C@@H]2NC(=O)N[C@@H]21` (some centres unmarked) [Dendrimer 5a], the Solubility result in data set [1] was “Low”.

In the case of `CC(C)C(C(=O)NCCCC(=O)O)N(CCNC(=O)CCN(CCC(=O)NCCN(C(=O)CCCC[C@@H]1SC[C@@H]2NC(=O)N[C@@H]21)C(C(=O)NCCCC(=O)O)C(C)C)CCN(CCC(=O)NCCN(C(=O)CCCC[C@@H]1SC[C@@H]2NC(=O)N[C@@H]21)C(C(=O)NCCCC(=O)O)C(C)C)CCC(=O)NCCN(C(=O)CCCc1ccc(N(CCCl)CCCl)cc1)C(C(=O)NCCCC(=O)O)C(C)C)C(=O)CCCC[C@@H]1SC[C@@H]2NC(=O)N[C@@H]21` (some centres unmarked) [Dendrimer 5b], the Solubility entry in data set [1] is reported as “High”.

Regarding `O=C(O)CCCc1ccc(N(CCCl)CCCl)cc1` [chlorambucil], the IC50 in data set [6] and in data set [8] was more than 100 µM throughout. For the same compound, in data set [7], the “activity of free agent on PC-3 cells” value is reported as “almost no activity”.
